The results in this text go back to the nanobody polyreactivity screen of Harvey et al. (2022).

A short description of the series: yeast display, Sf9 membrane polyspecificity reagent, FACS + sequencing; frameworks hold sequencing errors. In short, it runs like this:
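A synthetic nanobody library was expressed on Saccharomyces cerevisiae BJ5465 by galactose induction for 36–48 hours. The library was stained for 1 hour at 4 °C with 10% biotinylated, detergent-solubilized Sf9 membrane reagent and enriched with streptavidin microbeads before FACS. Low and high (top ~1%) gates were set on anti-HA fluorescence for expression and streptavidin fluorescence for reagent binding, and each polyreactivity label reflects the gate of origin.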
Take “QVQLVESGGSLVQAGGSLRLSCAASGSIFFYYAMGWYRQAPGKERELVAAISWSGGSTYYADSVKGRFTISRDNAKNTVYLQMNSLKPEDTAVYYCAADRPYAGRYWKGYHSALYDYWGQGTQVTVSS”: the “polyreactivity (PSR sort gate)” value is listed as “low polyreactivity”.
Consider “QVQLVESGGSLVQAGGSLRLSCAASGSTFDYYAMGWYRQAPGKARELHAAIDWSGDSTYYADSVKGRFTISRDNAKNTVYLQMNSLKREDSAVYYCPADLDSRGTYGRYEYWGQGTQVTVSS”, for which the “polyreactivity (PSR sort gate)” value is on record as “low polyreactivity”.
“QVQLVESGGSLVQAGGSLRVSCAASRSIFEHYAMGWYRQAHGKERELVATISSASRTHYADSVKGRFTISRDNAKNTVYLQRNSLKREDTAVYYCAARLYYVWYAPYYYWGQGTQVSVSS”: the “polyreactivity (PSR sort gate)” value is listed as “high polyreactivity”.
Take “QVQLVESGGSLVQEGGSLRLSCAASGRTYNVMGWDRQAPGKERELVAAITWGGGSTHYADSVKGRFTISRDNAKNTVYVQMNSLKPEDTAVYYCAADLLYKSTRVDYWGQGTQVTVSS”: the “polyreactivity (PSR sort gate)” value is on record as “low polyreactivity”.
In the case of “QVQLVESGGVFDQARGSLRLSCAASGSIFAIYAMGWYRQAPGKERELVAAISRSGGRTYYADSVKGRFTISRDNAKNTVYLQMNSLKPEDTAVYYCAAQGVSSGFRYRGGYWGQGTQVTVSS” it was “high polyreactivity”.
The result for “QVQLVESGGVLFQAGGSLRLSCAAAGFTFKYNAMGWYRQAPGKERELVASITSGATNYADSVKGRFTIARDNAKNTVSLQLTTLKPEETAVYDCAVVDVHYTRAKVGYAYGAYDYWGQCTQVTVSS” reads “low polyreactivity”; that for “QVQLVESGGVLLQAGGSLRLSCAASGSIFYPYAMGWYRQAPGKERELFAAITYIDADTYYADSVKGRFTISRDNAKNTVYLQMNSLKPEDTAVYYCAAEIPVYQGTGEDDYWGQGTQVTVSS”, “low polyreactivity”.
The result for “QVQLVESGGVLVKAGGSLRLSCAASGRIFGYYAMGWYIQAPGKERELFAAITYSSGRTYYADSVKGRFTISRDNAKNTFYLQMNSLKPEDTAVYYCAARYHYYLSPATYYYWGQGTQVTVSS” reads “high polyreactivity”; that for “QVQLVESGGVLVQAGCSIRLSCSASGLTFIQYAMGWYRQAPGKERELVAAINSGASTRYADSVKGRFTISRDNAKNTVYLQMNSLKPEDTAVYYCNARLRRYTNRYYKYYYWGQGTQVNVSS”, “high polyreactivity”; that for “QVQLVESGGVLVQAGGRLRISCAASGSTFVRNAMGWYRQAPGKEMELVAAISFSGGSTYYADSVKGRFTISRDTAKNTVYLQMNSLKPEDTAVYYCAKKTRYRSRGMNYWGQATQVTVSS”, “high polyreactivity”.
For the sequence “QVQLVESGGVLVQAGGRLRLSCAASGLTFNENVMGWYRQAPGKERELVAAISTGASTYYADSVKGRFTISRDNAKNTVYLQMNSLKPEDTAVYYCAKRVNRWYGYWGQGTQVTVSS”, the “polyreactivity (PSR sort gate)” value was “high polyreactivity”.
With “QVQLVESGGVLVQAGGSLPLSCAASGRILARNAMGWYRQAPGNERELVAAITSSTDSTYYADSVKGRFTISRDNAKNTVYLQMNSLKPEDTAVYYCATVVRLYRGRYSYDYWGQGTQVTVSS”, the “polyreactivity (PSR sort gate)” value was “high polyreactivity”.
In the case of “QVQLVESGGVLVQAGGSLRLICAASVRNFSTNSMGWYRQAPGKERELVASISFRGGRTYYADSVKGRFTISRDNAKNTVYLQMNSRKPEDNAVYYCVSGTKRTGYGYWGQGTQVTVSS” it was “high polyreactivity”.
The result for “QVQLVESGGVLVQAGGSLRLRCAASVRNYNSYMGWYRPAPGKERELVAAISWSSGTSTYYADSVKGRFTISRDNAKNTVYLQMNSLKPEDTEVYYCNAVDYFGPYPEEYDYWGQGTQVTVSS” reads “low polyreactivity”; that for “QVQLVESGGVLVQAGGSLRLSCAAMGWYRQAPGKERELVATITWSGGSTYYADSVKGRFTISRDNAKNTVYLQMNSLKPEDTAVYYCNSRATLLSPANTIRGYDYWGQGTQVTVSS”, “low polyreactivity”; that for “QVQLVESGGVLVQAGGSLRLSCAASGRIFDIYAMGWYRQAPGKERELVAGITWRAGSTYYADSVKGRFTISRDNAKNTVYLQMNSLKPEDSAVYFCARDYSRHKGDYWGQGTQVTVSS”, “low polyreactivity”.
In the case of “QVQLVESGGVLVQAGGSLRLSCAASGRIFLEYAMGWYRQAPGKERELVAAISRGGGRTYYADSVKGRFTISRDNAKNTVYLLMNSLKPEDTAVYYCAAGLAKGYWASFAYRYDYWGQGTQVTVSS” it was “high polyreactivity”.
Consider “QVQLVESGGVLVQAGGSLRLSCAASGRIFWGYAMGWYRQAPGKERELVARLTSGGDTYYADSVKGRFTISRDNAKNTVDLQMNSLKPEDTAVYYCAKSTAVKPYAYRESGFIYDYRGQGTQVTVSS”, for which the “polyreactivity (PSR sort gate)” value is on record as “low polyreactivity”.
In the case of “QVQLVESGGVLVQAGGSLRLSCAASGRTFDSYAMGWYRQAPGKERELVAAISSRGTRTYYADSVKWRFTISRDNAKNTVYLQMNSLKPEDTAVYYCNAGGAYEYDYWGQGTQVTVSS” it was “high polyreactivity”.
The result for “QVQLVESGGVLVQAGGSLRLSCAASGRTFYGYSMGWYRQAAGKEREFVSDITYSGGRTYYADSVKGRFTISRDNAKNTVYLQMYSLKPEDTAVYYCNAYYYYVNQGRYEYGYWGQGTQVTVSS” reads “high polyreactivity”; that for “QVQLVESGGVLVQAGGSLRLSCAASGRTFYYYAMGWYRQAPGKEREFVAVISGSGANTFYADSVKGRFTISRDNAKNTVYLQMNSLKPEDTAVYYCAARSWEGYGYWGQGTQVTVSS”, “high polyreactivity”.
In the case of “QVQLVESGGVLVQAGGSLRLSCAASGRTLFHYAMGWDRQAPGKERELVAAIRNSDGSTYYADSVKGRFTISRDNAKNTVYLQMNSLKPEDTAVYYCAAKYKYRTNNYWGQGTQVTVSS” it was “high polyreactivity”; in that of “QVQLVESGGVLVQAGGSLRLSCAASGSIFGYNVMGRYRQAPGKERELVAAITYSGGSTYYADSVKGRFTISRDNAKNTVYLQMNSLKPEDTAVYYCAKVTGRRFPAYGYDHWGQGTQLTVSS”, “high polyreactivity”; in that of “QVQLVESGGVLVQAGGSLRLSCAASGSIFYYNAMGWYRQAPGKERELVATITGGNGTYYADSVKGRFTISRDNAKNTVYLQMNSLKPEVTAVYYCARDTDPQSSRSSDYDYWGQGTQVTVSS”, “low polyreactivity”.
“QVQLVESGGVLVQAGGSLRLSCAASGSILHDYAMGWYRQAPGKERELVASINWSGGRTYYADSVKGRFTISRDNAKNTVYLQRNRLTPEDTAVYYCSADPSWLHVSHAPTFGLDYWGQGSQVTVSS”: the “polyreactivity (PSR sort gate)” value is listed as “high polyreactivity”.
In the case of “QVQLVESGGVLVQAGGSLRLSCAASGSIYRYYAMGWYRQAPGKERELVAAISWRGGSTYYADSVKGRFTISRDNAKNPVYLQMNSLKPEDTAVYYCAAELWVGTYGEYDYWGQGTQVTVSS” it was “low polyreactivity”; in that of “QVQLVESGGVLVQAGGSLRLSCAASGSTFLWYAMGWYRQAPGKEREMVAAISRSGGNTYYADSVKGRFTISRDNAKTSVYLEMNSLNPEDTAVYDCAARKLYGSPEHGYGGQGTQVTVSS”, “high polyreactivity”; in that of “QVQLVESGGVLVQAGGSLRLSCAASGSTFNSYVMGWYRQAPGKEREFVAAISWSGVRTYYADSVKGRFTISRDNAKNTVYLQMNSLKPEDTAVYYCAVRSGRRNYVRPAFGYWGQGTQVTVSS”, “high polyreactivity”.
Take “QVQLVESGGVLVQAGGSLRLSCAASGSTFVYNAMGWYRQAPGKESEFVAAISGSGGSTYYADSVKGRFTISRDIAKNTVYLQMNSLKPDDTAVYYCATAGRYGRYRTYPYRSKYDYWGQGTQVTVSS”: the “polyreactivity (PSR sort gate)” value is “high polyreactivity”.
Consider “QVQLVESGGVLVQAGGSLRLSCAATGYIFHLYGMGWYRQAPGKERELVARITYRRGSTYYADSVKGRFTISRDNAKNTVYLQMNSLKPEDTAVYYCAKRRGYGYNYWGQGTQVTVSS”, for which the “polyreactivity (PSR sort gate)” value is “high polyreactivity”.
The result for “QVQLVESGGVLVQAGGSLRLSCADSGRTFYTNAMGWYRQAPGKERELVAAITGSDGNTYYADSVKGRFTISRENAKNTVYLQMISLKAEDTAVYYGFDYWVQGTQVTVSS” reads “low polyreactivity”; that for “QVQLVESGGVLVQAGGSLRLSCADSGSIFILYAMGWYRHAPGKESEFVAAITYRGGSTKYADSVKGRFTISRDNAKNTVYLQMNRLKPEDTAVYYCAAGGYWRSPCGSVSRYGYWGQGTQVTVSS”, “high polyreactivity”.
In the case of “QVQLVESGGVLVQAGGSLRLSSAASGRTFFRYTMGWYRQAPGKERELVAAISRSDGTTYYADSVKGRFTISRDSAKNTVYLEMNSLKPEDTAVYYCAKSLPSGYYYWGQGTQVTVSS” it was “low polyreactivity”.
In the case of “QVQLVESGGVLVQAGGSLRLTCAASGRTFGHYAMGWYRQAPGKERELVAANTSSAGRTRYADSVKGRFTISRDYAKNTVYLQMNSLKPEDTAVYYCAVAEGYSPAYLRDYWGQGTQVTVSS” it was “high polyreactivity”.
As for “QVQLVESGGVLVQAGGSLRLTCAASGSILYLNAMGWYRQAPGKERELVAAITWSGGSTSYADSVKGRFTISRDNAKYTVSLQMNSLKPEDTAVYYCASGRRGYGGVYYAGGYWGQGTQVTVSS”, the “polyreactivity (PSR sort gate)” value is “low polyreactivity”.
The result for “QVQLVESGGVLVQAGGTLRFSCAPSGLTFVYYTMRWYRQAPGQEREFVAGIDWSGGSTYYADSVKGRFTISRDNAKNTVYLHMNSLKPEDTAVYYCAAAVYYQYCVYRHDYWGKGTQVTVSS” reads “low polyreactivity”.
The result for “QVQLVESGGVLVQDGGSLRLSCAASGRIFGHYAMGWYRQAPGKERELVAAISWSGGSTYYADSVKARFTISRDNAKNTVYLQMKSLKPEDTAVYDCNTGRVRYQGVRYDYWGQGTQVTVSS” reads “high polyreactivity”; that for “QVQLVESGGVLVQEGGSLRLICAASGSIFGYYVMGWYRQAPGKERELVAAISRSGGSTYYADSVKGLFTISRDNAKTTVYLQMNSLKQEDTAVYYCAASFAVRYPRLDYWGQGTQVTVSS”, “high polyreactivity”.
As for “QVQLVESGGVLVQEGGSLRLSCDASGSIFECYAMGWYRQAPGKARELVAYITYNGGSTYYADSVKGRFTISRHNAKKTVYLQMNSLKPEDSAVYYCAAVYFVQVPDYYYASEYGYWGQGTQVTVSS”, the “polyreactivity (PSR sort gate)” value is “low polyreactivity”.
In the case of “QVQLVESGLGLVQAAGSLRLSCAASGSILYSYAMGWYRQAPGKERELFAAITGAGASTNYADSVKGRFTISRDNGKNTVYLQMNSLKPEDTAVYYCNAEYNPYHYYKAWVYTYDYGYWGQGTQVTVSS” it was “low polyreactivity”.
